In US20160052997A1 (CELLTRION, published 2016):

Biological target: HA of A/CA/04/09 (H1N1) virus (Influenza A virus A/CA/04/09 (H1N1))
Experiment: cell-based or functional assay

B1: CT120 (antibody, V domains shown)
VH: QVQLVQSGAEVKMPGSSVKVSCKTSGVFFSSHAISWVRQAPGQGLEWMGGISPMFGTTHYAQKFQGRVTITADQSTTTAYMELTSLTSEDTAVYYCARDGAGSYYPLNWFDPWGQGTLVTVSS
VL: EIVLTQSPATLSLSPGERATLSCRASENIWNNLAWYQQKPGQAPRLLISGASTGATGVPSRFRGSGSRTEFTLTISSLQSEDFAIYFCQQYNSWPRTFGPGTKVEIKR
With B1 as the binder, how does the “EC50, microneutralization test” value read?
The value was 0.21 µg/mL.
